Assay results: patent US20260327578A1, “TRANSGLUTAMINASES AND USES THEREOF” (CURIE CO. INC., priority 2023, published 2026)

Tests used:
N,N-dimethylcasein = assay: Productivity: total product formed after 24 hours (protein functionalization assay); format: biochemical; details: improvement relative to wild-type Tgase (SEQ ID NO: 2); total product after 24 h
Description: Enzymatic “productivity” is a measure of product formation or substrate disappearance over time, at a prescribed temperature under specified reaction conditions. It is the measure both the durability and reaction yield of the enzyme variant. In this instance, productivity is defined as total product formed over 24-hours at a constant substrate concentration when the enzyme is the rate limiting factor. The time is defined as 24 hours, which represents approaching or surpassing burnout, denaturation, or self-reaction of the enzyme variant. In other words, variants with higher productivity deliver a higher product yield in 24-hours than variants with lower productivity produce in the same period of time. “Rate” refers to the initial rate for an enzymatic reaction, at a prescribed temperature under specified reaction conditions. The enzyme produces product at an initial rate that is approximately linear for a short period after the start of the reaction. When concentrations of enzyme and substrate are the same across the sample set, initial rates between enzyme variants can be compared. In this instance, the linear range for production of product occurs in one hour. Enzyme variants with faster initial rates deliver a higher product yield in one hour than variants with slower initial rates produce at the same time-period. In some cases, improvements to initial rates also deliver a more productive variant. In some cases, improvements to initial rates result in faster decay of the enzyme variant reducing overall enzymatic productivity. Productivity and rate may be assessed as described in Example 2.
Table 6 depicts variants of Streptomyces mobaraensis Tgase and improvement to productivity and/or rate relative to wild-type Tgase (SEQ ID NO. 2) as determined in Example 3. Numbering of amino acid positions is in reference to the mature S. mobaraensis Tgase sequence depicted in SEQ ID NO. 2. A “−” indicates a reduction in activity. A “+” indicates an improvement between 1.2 and 2-fold. A “++” indicates an improvement between 2 and 5-fold. A “+++” indicates an improvement greater than 5-fold.
To evaluate productivity, total product formed was measured after 24-hours of incubation, using the assay described in Example 4B. The time is defined as 24 hours which represents approaching or surpassing burnout, denaturation, or self-reaction of the enzyme variant.
Protein functionalization by Tgase variants was determined by the fluorogenic labeling of casein using monodansylcadaverine (e.g., a commercially available kit such as the Transglutaminase Fluorogenic Activity Assay Kit, T036, Zedira, Germany). Tgase activity was monitored by measuring fluorescence (excitation wavelength 332 nm; emission wavelength 500 nm) using a BioTek Synergy H1 microplate reader. Transglutaminase-catalyzed covalent coupling (crosslinking) of monodansylcadaverine with N,N-dimethylcasein produces a product that causes a shift in intensity and wavelength of fluorescence of the dansyl group now linked to the casein. The relative transglutaminase activity is shown by increase of fluorescence intensity over time. Enzyme variant loading was optimized based on expression levels, ensuring enzyme was the rate limiting factor. Briefly, cell-free reactions (set up as described in Example 2A) were first diluted 10-fold using phosphate buffer, pH 7.4, and a 5 microliter aliquot was analyzed.

collagen = assay: Collagen-modifying activity with FITC-gelatin or FITC-cadaverine; format: biochemical; details: 16 hours, pH 7.4
Description: Substrate specificity for collagen of Tgase variant A3 (SEQ ID NO: 4) was tested by allowing the variant to react with either fluorescein-labeled gelatin (FITC-Gelatin, to test protein-protein cross-linking) or fluorescein-labeled cadaverine (FITC-cadaverine, to test protein-small molecule cross-linking) with a collagen layer deposited on the bottom of a 96-well microtiter plate. Tgase variant A3 (SEQ ID NO: 4) and wild-type Tgase were diluted to 4-800 ppm in 50 mM phosphate buffer, pH 7.4, supplemented with 100 mM NaCl in 96-well collagen coated microtiter plates. Either FITC-gelatin or FITC-cadaverine was added to 1 g/L (final volume 100 μL) and the plates were sealed and incubated at either 37° C. or 50° C. for 16 hours. The reaction supernatants were carefully removed and then 200 μL 50 mM [COMPOUND LEFT OUT] mM NaCl, pH 7.4 buffer was added gently against the side of each well then carefully removed. This wash step was repeated. The plate-bound material was extracted by vigorously pipetting 100 μL dimethylsulfoxide into each well, then the extract was transferred into a black bottom 96-well plate. The fluorescence of the samples was measured at an excitation wavelength of 487 nm and an emission wavelength of 528 nm. The fluorescence signal is assumed to be proportionate to the concentration of fluorescent product extracted from the surface of the plate. For both FITC-gelatin and FITC-cadaverine, the fluorescence response per concentration enzyme was higher for wells treated with Tgase variant A3 (SEQ ID NO: 4) than for wells treated with wild-type Tgase (Table 11).

E. coli (ATCC 8739) = assay: MIC determination against E. coli; format: cell-based
Description: E. coli (ATCC 8739) and C. albicans (ATCC 10231) were acquired from the American Type Culture Collection (ATCC) (Manassas, VA) and maintained as −80° C. frozen glycerol stocks.
The following day, the cell density of the saturated cultures was calculated using OD600 and cultures were diluted to 104 to 10^6 CFU/mL in sterile Mueller Hinton broth to generate the inoculum, and 100 μL of the inoculum was combined with 100 μL of serially diluted Tgase variant A3 (SEQ ID NO: 4) at a range of 0.0001-0.05 weight percent. Growth curves were measured by OD600 on a BioTek® Synergy Plate Reader. All test conditions were performed in triplicate. MIC was determined to be […] (0.005% w/v) against E. coli for the enzyme described in SEQ ID NO: 4 using OD600.

B1: A3: Tgase variant S2P Q50S Q74A K91H Q124L K151R K152R N282M G283A relative to SEQ ID NO: 2 (protein, UniProt P81453 77-407, looked up, variant S2P Q50S Q74A K91H Q124L K151R K152R N282M G283A)
Protein-glutamine …: DPDDRVTPPAEPLDRMPDPYRPSYGRAETVVNNYIRKWQQVYSHRDGRKSQMTEEQREWLSYGCVGVTWVNSGAYPTNRLAFASFDEDRFHNELKNGRPRSGETRAEFEGRVAKESFDEEKGFLRAREVASVMNRALENAHDESAYLDNLRRELANGNDALRNEDARSPFYSALRNTPSFKERNGGNHDPSRMKAVIYSKHFWSGQDRSSSADKRKYGDPDAFRPAPGTGLVDMSRDRNIPRSPTSPGEGFVNFDYGWFGAQTEADADKTVWTHGNHYHAPMASLGAMHVYESKFRNWSEGYSDFDRGAYVITFIPKSWNTAPDKVKQGWP
Productivity (N,N-dimethylcasein): + (an improvement between 1.2 and 2-fold)
Fluorescence/[Enzyme] (collagen; FITC-Cadaverine, 37 °C): 20.3 RFU/ppm
Fluorescence/[Enzyme] (collagen; FITC-Cadaverine, 50 °C): 182.2 RFU/ppm
Fluorescence/[Enzyme] (collagen; FITC-Gelatin, 37 °C): 8.4 RFU/ppm
Fluorescence/[Enzyme] (collagen; FITC-Gelatin, 50 °C): 36.9 RFU/ppm
MIC (E. coli (ATCC 8739); OD600): 200 ppm
MIC (E. coli (ATCC 8739); OD600, printed in brackets after the ppm value): 0.005 % w/v
